Kd data for four molecules are collected here from paper PMC8496732, “RAB33B recruits the ATG16L1 complex to the phagophore via a noncanonical RAB binding protein” (Autophagy, 2020).

Details in all cases: both partners purified
The target in assay [1] is T1, RAB33B wild type, 6xHis, labeled with Tide Fluor 3 (human, UniProt Q9H082 1-229, labeled with Tide Fluor 3 (TF3) maleimide).
T1 construct: RAB33B, human; Loaded with GppNHp or GDP by nucleotide exchange; The crystal construct is 30–218; also called WT^GppNHp; WT^GDP
T1 sequence (looked up): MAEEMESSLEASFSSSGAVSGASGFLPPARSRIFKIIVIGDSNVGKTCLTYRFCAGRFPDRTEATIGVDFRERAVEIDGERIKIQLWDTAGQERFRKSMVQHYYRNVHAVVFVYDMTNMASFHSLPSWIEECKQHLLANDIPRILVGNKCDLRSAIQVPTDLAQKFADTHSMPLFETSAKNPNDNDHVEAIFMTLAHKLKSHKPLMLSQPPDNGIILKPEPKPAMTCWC
Nature of the assay: MST; TF3-labeled RAB33B at 10 μM, GDP-bound; unlabeled ATG16L1(141–265) titrated from 400 μM to 12 nM; 20 mM HEPES pH 7.2, 25 mM NaCl, 2 mM DTE, 2 mM MgCl2, 0.05% Tween 20, 10 µM GDP.

The target of assay [2] is T2, RAB33B I66A, 6xHis, labeled with Tide Fluor 3 (human, UniProt Q9H082 1-229, I66A, labeled with Tide Fluor 3 (TF3) maleimide).
T2 construct: RAB33B, human, I66A; also called I66A^GppNHp
T2 sequence (looked up): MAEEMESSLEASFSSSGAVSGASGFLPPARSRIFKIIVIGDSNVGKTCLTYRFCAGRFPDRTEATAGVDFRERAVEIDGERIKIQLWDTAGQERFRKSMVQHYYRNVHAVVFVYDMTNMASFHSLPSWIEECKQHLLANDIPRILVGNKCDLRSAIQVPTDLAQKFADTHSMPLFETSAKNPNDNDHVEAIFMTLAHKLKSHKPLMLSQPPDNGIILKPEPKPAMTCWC
Nature of the assay: MST; TF3-labeled RAB33B at 10 μM, GppNHp-bound; unlabeled ATG16L1(141–265) titrated from 400 μM to 12 nM; 20 mM HEPES pH 7.2, 25 mM NaCl, 2 mM DTE, 2 mM MgCl2, 0.05% Tween 20, 10 µM GppNHp.

The target of assay [3] is T3, RAB33B K35A, 6xHis, labeled with Tide Fluor 3 (human, UniProt Q9H082 1-229, K35A, labeled with Tide Fluor 3 (TF3) maleimide).
T3 construct: RAB33B, human, K35A; also called K35A^GppNHp
T3 sequence (looked up): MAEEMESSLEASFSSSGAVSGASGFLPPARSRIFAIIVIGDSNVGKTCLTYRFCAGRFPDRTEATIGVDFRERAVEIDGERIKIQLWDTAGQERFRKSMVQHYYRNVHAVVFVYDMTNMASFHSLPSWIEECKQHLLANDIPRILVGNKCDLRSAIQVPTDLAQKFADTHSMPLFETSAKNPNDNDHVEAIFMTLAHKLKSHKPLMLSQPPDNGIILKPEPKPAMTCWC
The assay is described as above.

Assay [4] has as its target T1, RAB33B wild type, 6xHis, labeled with …. The assay is described as above.
The target of assay [5] is T4, RAB33B F95A, 6xHis, labeled with Tide Fluor 3 (human, UniProt Q9H082 1-229, F95A, labeled with Tide Fluor 3 (TF3) maleimide).
T4 construct: RAB33B, human, F95A; also called F95A^GppNHp
T4 sequence (looked up): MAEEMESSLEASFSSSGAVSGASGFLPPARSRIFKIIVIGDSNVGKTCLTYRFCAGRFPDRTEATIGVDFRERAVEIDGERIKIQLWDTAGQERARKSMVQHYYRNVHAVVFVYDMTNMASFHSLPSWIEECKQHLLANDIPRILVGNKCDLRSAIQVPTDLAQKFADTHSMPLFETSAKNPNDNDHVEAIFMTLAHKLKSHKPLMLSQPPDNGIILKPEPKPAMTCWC
Described as above.

B1: ATG16L1(141–265) wild type, expressed separately (domain or fragment, UniProt Q8C0J2 141-265, looked up)
chain: LETNCLDLRTKLQDLEVANQTLKDEYDALQITFTALEEKLRKTTEENQELVTRWMAEKAQEANRLNAENEKDSRRRQARLQKELAEAAKEPLPVEQDDDIEVIVDETSDHTEETSPVRAVSRAAT
notes: pOPIN vector with GST tag; also called WT
Take B1: the Kd in assay [1] was 213 nM; in assay [2] it was 25.9 µM; in assay [3] it was greater than 100 µM; in assay [4], 95 nM; in assay [5], 17.1 µM.

B2: ATG16L1(141–265) N209A (domain or fragment, UniProt Q8C0J2 141-265, looked up)
chain: LETNCLDLRTKLQDLEVANQTLKDEYDALQITFTALEEKLRKTTEENQELVTRWMAEKAQEANRLNAEAEKDSRRRQARLQKELAEAAKEPLPVEQDDDIEVIVDETSDHTEETSPVRAVSRAAT
In assay [4], B2 yielded a Kd of 884 nM.

B3: ATG16L1(141–265) N206A,N209A (domain or fragment, UniProt Q8C0J2 141-265, looked up)
chain: LETNCLDLRTKLQDLEVANQTLKDEYDALQITFTALEEKLRKTTEENQELVTRWMAEKAQEANRLAAEAEKDSRRRQARLQKELAEAAKEPLPVEQDDDIEVIVDETSDHTEETSPVRAVSRAAT
Consider B3, for which binding in assay [4] was put at a Kd of 24100 nM.

B4: ATG16L1(141–265) N206A (domain or fragment, UniProt Q8C0J2 141-265, looked up)
chain: LETNCLDLRTKLQDLEVANQTLKDEYDALQITFTALEEKLRKTTEENQELVTRWMAEKAQEANRLAAENEKDSRRRQARLQKELAEAAKEPLPVEQDDDIEVIVDETSDHTEETSPVRAVSRAAT
With B4, the affinity in assay [4], expressed as Kd, was 3380 nM.

A word on the Kd: it is the concentration at which binding is half-saturated. High values mean weaker binding, low ones tighter binding.
